Assay [1] deals with L19 IgG control antibody (unmodified, without linker) (human). Kind of assay: SPR; Biacore T100; L19 IgG or modified versions immobilised on a CM5 chip treated with antibody capture kit; soluble Fc receptor fragments as analytes at 1.56 - 50 nM; association and dissociation kinetics used to calculate the dissociation constant.
The target of assay [2] is L19 IgG-DnaEN after PTS (trans-spliced with DnaEC peptide without a probe) (human). The assay is described as above.
Assay [3] concerns the target L19 IgG-GyrA after EPL (cleaved with Mesna, cysteine as probe) (human). The assay is described as above.
The target in assay [4] is L19 IgG after PTS (L19 IgG-DnaEN trans-spliced with DnaEC peptide without a probe) (human). Kind of assay: SPR; Biacore T100; L19 IgG or modified versions immobilized on a CM5 chip treated with antibody capture kit; soluble Fc receptor fragments 1.56 - 50 nM as analytes; KD calculated from association and dissociation kinetics.
Chain of L19 IgG after PTS (L19 IgG-DnaEN trans-spliced with DnaEC peptide without a probe) (human) (heavy, as listed by the source, chain 1 of 2): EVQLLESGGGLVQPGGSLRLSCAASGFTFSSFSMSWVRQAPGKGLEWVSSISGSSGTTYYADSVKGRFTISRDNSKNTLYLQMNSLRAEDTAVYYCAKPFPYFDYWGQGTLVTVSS
Chain of L19 IgG after PTS (L19 IgG-DnaEN trans-spliced with DnaEC peptide without a probe) (human) (light, as listed by the source, chain 2 of 2): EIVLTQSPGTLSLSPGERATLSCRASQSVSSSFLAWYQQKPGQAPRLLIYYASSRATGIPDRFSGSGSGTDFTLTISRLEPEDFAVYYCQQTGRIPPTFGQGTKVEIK
Assay [5] has as its target L19 IgG after EPL (L19 IgG-GyrA cleaved with Mesna and derivatized with cysteine) (human). Described as above.

Chain of L19 IgG-DnaEN after PTS (trans-spliced with DnaEC peptide without a probe) (human) (heavy, as listed by the source, chain 1 of 2): as the sequence (heavy, as listed by the source, chain 1 of 2) above
Chain of L19 IgG-DnaEN after PTS (trans-spliced with DnaEC peptide without a probe) (human) (light, as listed by the source, chain 2 of 2): as the sequence (light, as listed by the source, chain 2 of 2) above
Chain of L19 IgG-GyrA after EPL (cleaved with Mesna, cysteine as probe) (human) (heavy, as listed by the source, chain 1 of 2): as the sequence (heavy, as listed by the source, chain 1 of 2) above
Chain of L19 IgG-GyrA after EPL (cleaved with Mesna, cysteine as probe) (human) (light, as listed by the source, chain 2 of 2): as the sequence (light, as listed by the source, chain 2 of 2) above
Chain of L19 IgG control antibody (unmodified, without linker) (human) (heavy, as listed by the source, chain 1 of 2): as the sequence (heavy, as listed by the source, chain 1 of 2) above
Chain of L19 IgG control antibody (unmodified, without linker) (human) (light, as listed by the source, chain 2 of 2): as the sequence (light, as listed by the source, chain 2 of 2) above
Chain of L19 IgG after EPL (L19 IgG-GyrA cleaved with Mesna and derivatized with cysteine) (human) (heavy, as listed by the source, chain 1 of 2): as the sequence (heavy, as listed by the source, chain 1 of 2) above
Chain of L19 IgG after EPL (L19 IgG-GyrA cleaved with Mesna and derivatized with cysteine) (human) (light, as listed by the source, chain 2 of 2): as the sequence (light, as listed by the source, chain 2 of 2) above

With “Fcγ RI/CD64, soluble Fc receptor fragment (from UniProt P12314 16-292)”, in assay [1], the Kd is 0.17 nM, the koff is 0.000168 s⁻¹ and the kon was 1.02e+06 M⁻¹ s⁻¹. Besides, in assay [2], the Kd was 0.21 nM, the koff was 0.000201 s⁻¹ and the kon is 960000 M⁻¹ s⁻¹. Also, in assay [3], the Kd is 0.13 nM, the koff was 0.000145 s⁻¹ and the kon was 1.11e+06 M⁻¹ s⁻¹.

Turning to “soluble Fc receptor fragment Fcγ RIIIA/CD16a (from UniProt P08637 17-208)”, the Kd in assay [4] and in assay [5] was 60 nM throughout.
